Reference: patent publication US6933149B2, “Culture system for mouse tracheal epithelial cells” (North Carolina State University, priority 2001, dated 2005)

Test system: MTE cell cultures
Assay: IL-13 treatment of MTE cell cultures, Periodic Acid Schiff-stained cross-sections
Type: cell-based, mouse
Conditions: for proliferation of MTE cell cultures in response to IL-13: Method 2 cultures (5% serum until air/liquid interface)
Experimental: FIGS. 2A and 2B includes two photographs of Periodic Acid Schiff-stained cross-sections of MTE cell cultures. FIG. 2B depicts the control culture that was only exposed to the normal media required for MTE cell growth, while FIG. 2A depicts the IL-13-treated culture which was exposed to recombinant murine IL-13 (10ng/ml) for 9 days.
Epithelial cells isolated from the trachea of two mice were used to seed a one cm^2 area. Cells were placed in the apical chamber of the culture insert in medium comprising DMEM F12 plus additives (see above table). The basolateral chamber was supplied with medium and 10% FCS for 24 hours, after which FCS was no longer added to the basolateral media. Cells were maintained for 5 days and then the apical media was removed to create an air/liquid interface. Cells were then maintained in culture for approximately 16 more days.
The present methods were also used to achieve MTE cultures grown with 5% serum until the air/liquid interface is established. This is referred to as “Method 2—Combination.” This approach allows for more rapid growth of the cells while removing the confounding effects of serum for the experimentation period. […] FIGS. 2A and 2B illustrate the increase in the epithelial cell number of cell cultures exposed to an IL-13 regimen. Specifically FIGS. 2A and 2B show two photographs of Periodic Acid Schiff-stained cross-sections of MTE cell cultures. FIG. 2A depicts an IL-13-treated culture that was exposed to recombinant murine IL-13 (10ng/ml) for 9 days while FIG. 2B is a photograph of a control culture that was only exposed to the normal media required for MTE cell growth.

B1: IL-13: recombinant murine IL-13, an inflammatory mediator shown to mediate epithelial cell proliferation (protein, UniProt P20109 19-131, looked up)
Interleukin-13: APGPVPRSVSLPLTLKELIEELSNITQDQTPLCNGSMVWSVDLAAGGFCVALDSLTNISNCNAIYRTQRILHGLCNRKAPTTVSSLPDTKIEVAHFITKLLSYTKQLFRHGPF
proliferation of MTE cell cultures in response to IL-13: respond to IL-13 with proliferation
proliferation of MTE cell cultures in response to IL-13 (listed as interleukin 13): proliferate
epithelial cell number (recombinant murine IL-13 10ng/ml for 9 days vs control culture in normal media, FIGS. 2A and 2B): increase in epithelial cell number
